The numbers were not newly measured in PMC6438182, which cites them from elsewhere.

A word on the Kd: it is a measure of binding affinity in units of concentration.

The target of this data set is GATAD2A coiled-coil (Homo sapiens) (UniProt Q86YP4).
UniProt Q86YP4, sequence (Q86YP4 137-178): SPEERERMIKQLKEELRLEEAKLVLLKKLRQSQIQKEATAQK

For the substance MBD2 coiled-coil (from UniProt Q9UBB5), the Kd was 42 nM.
